In article PMC2965215:

Molecular target: T1, ORF904 primase domain Y352A (Sulfolobus islandicus plasmid pRN1, UniProt Q54324 40-370, Y352A)
T1 sequence: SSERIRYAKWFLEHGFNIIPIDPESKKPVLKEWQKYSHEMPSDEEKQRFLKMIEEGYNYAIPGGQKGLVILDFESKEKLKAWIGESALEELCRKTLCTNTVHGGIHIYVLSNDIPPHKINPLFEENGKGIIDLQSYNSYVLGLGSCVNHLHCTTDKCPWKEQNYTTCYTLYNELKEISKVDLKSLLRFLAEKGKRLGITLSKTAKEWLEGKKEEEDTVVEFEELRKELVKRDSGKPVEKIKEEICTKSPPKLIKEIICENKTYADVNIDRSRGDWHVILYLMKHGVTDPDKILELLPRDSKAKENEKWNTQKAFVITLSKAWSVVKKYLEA
Assay: fluorescence anisotropy

In the case of TCTTCTGTGCACTCTTC (ssDNA) [templatefluo], the Kd is reported as 1030 ± 80 nM.
